From patent publication US20170368119A1, “METHODS AND COMPOSITIONS FOR TREATING C-MET ASSOCIATED CANCERS” (YEASTERN BIOTECH CO., LTD, priority 2014, published 2017)

Tests used:
[1] = test system: HCC329; assay: wound healing migration assay, HCC329; assay type: cell-based, human
Procedure: The HCC cells were cultivated on 24-well plates accompanied with a wound healing culture insert until confluence followed by serum starvation of the cells for 24 hours and the culture insert were then removed. After appropriate treatments, pictures were taken under a phase contrast microscope at indicated times.
Cell numbers were counted, and the relative doubling times of the respective treated groups were determined by taking the data of the untreated group as 100%. […] Relative migration was analyzed quantitatively by taking the motility of untreated cells (Con) as 1.0.

[2] = test system: p-JNK, p-ERK, p-AKT, p-EGFR in HCC329; assay: immuno-blotting of signaling molecules, HCC329; assay type: cell-based, human; conditions: within 4 to 16 hours, data not shown
Text: To investigate the molecular mechanism of FIP-gts in suppression of tumor progression of HCCs, the effects of FIP-gts on the activity and/or quantity of the critical members present in c-Met dependent signaling pathway, including c-Met, phosphorylated c-Met (p-c-Met) and downstream effectors p-JNK and p-ERK, were examined in HCCs. […] Total proteins were harvested from the cells and subjected to immuno-blotting analysis using GAPDH as a loading control. Antibodies for p-c-Met, p-JNK, p-ERK and p-paxillin (S178), GAPDH and ERK were purchased from Santa Cruz Biotechnology (California, USA). The band intensities on the blots were quantified with Image J. Software. Relative band intensity of each molecule was calculated, taking the data of untreated HCC372 or HCC329 as 1.0.

[3] = test system: HCC372; assay: wound healing migration assay, HCC372; assay type: cell-based, human; conditions: JNJ 26.5 nM, 48 hours
Procedure: The HCC cells were cultivated on 24-well plates accompanied with a wound healing culture insert until confluence followed by serum starvation of the cells for 24 hours and the culture insert were then removed. After appropriate treatments, pictures were taken under a phase contrast microscope at indicated times. Quantitative analysis of motility of the HCC cell lines described in Example 1 was performed by directly counting the cells migrating into the blanking area at 48 hours using Image J. Software available from the NIH website. In general, motilities of the mesenchymal HCCs were higher than those of the epithelial ones.
The most motile HCC cell lines identified in Example 2, namely HCC372 and HCC329, were employed for testing the molecular and cellular effects of FIP-gts on HCC, in comparison with those of JNJ-38877605 (abbreviated hereafter as JNJ), which is an ATP-competitive inhibitor for the catalytic activity of c-Met. In the cell proliferation assay, HCC329 and HCC372 cells were untreated or treated with FIP-gts (prepared in Example 4) at 0.5, 1.0 or 2.0 μg/ml for 72 hours. Cell numbers were counted, and the relative doubling times of the respective treated groups were determined by taking the data of the untreated group as 100%. […] Relative migration was analyzed quantitatively by taking the motility of untreated cells (Con) as 1.0. […]

[4] = test system: HCC329; assay: HCC329 tumor development and metastasis in SCID mice model; assay type: in vivo; conditions: JNJ 0.5-2.0 nmole/g mouse, intraperitoneal twice a week, 2 months
Procedure: HCC329 cells (approximately 2×10^7) suspended in 100 μl Dulbecco's Modified Eagle Medium (DMEM; Gibco, Grand Island, N.Y., USA) were directly injected into the subserosa of the middle liver lobe of the SCID mice, followed by intraperitoneal administration twice a week with DMEM as a vehicle, vehicle-containing FIP-gts (4.0-20 μg/g mouse) or JNJ (0.5-2.0 nmole/g mouse).
The mice were sacrificed 2 months after injection. Tumor mass was measured and the occurrence of intrahepatic metastasis and/or extrahepatic metastasis was recorded. Nodules with diameter of more than 0.1-0.2 cm observed on the left or right lobes were recognized as secondary tumor foci. […] Extra-hepatic metastasis was defined to be the case where the tumors appearing in organs other than liver such as in intestine. During the animal experiment, the regulations relevant to the care and use of laboratory animals were followed. This was approved by the Institutional Animal Care and Use Committee (IACUC) in Tzu Chi University (No. of consent form: 102080).

[5] = test system: HCC372; assay: MTT cell viability, HCC372; assay type: cell-based, human; conditions: 48 hours
Procedure: (§1) HCC372 and HCC329 cell lines established in Example 2 were cultured in 24-well plates at 1×10^5 cells/well in Dulbecco's Modified Eagle Medium (DMEM; Sigma, St. Louis, Mo., USA) supplemented with 1% heat-inactivated fetal bovine serum (FBS; Gibco, N.Y., USA) in the presence or absence of FIP-gmi, FIP-fve and FIP-vvo prepared in Example 4 at 1, 2.5 and 5 μg/ml for 48 hours. The supernatant was removed and 25 μl per well of 2.5 mg/ml MTT (3-[4,5-dimethylthiazol-2-yl]-2,5-dipheyltetrazolium bromide; Sigma Chemical Co., St. Louis, Mo., USA) in phosphate-buffered saline (PBS) was added. The plates were incubated at 37° C. for 1 hour to allow the transformation of MTT into water-insoluble formazan crystals. Then, the supernatant was removed and dimethyl sulfoxide (DMSO) was added to all wells and mixed thoroughly to dissolve the dark blue crystals. After a few minutes at room temperature to ensure that all crystals were totally dissolved, the plates were read at 570 nm. Relative survival rate was calculated by taking the number of untreated cells (Con) as 100%. The results are shown in FIGS. 6A and 6B, where the data were representative of 4 reproducible experiments.

[6] = test system: HCC329; assay: MTT cell viability, HCC329; assay type: cell-based, human; conditions: 48 hours
Procedure: as §1

[7] = test system: HCC329; assay: transwell migration assay, HCC329; assay type: cell-based, human; conditions: FIP-fve 10 μg/ml, 48 hours
Procedure: (§2) Further, the effects of the three FIPs on migration of both HCC cells were examined. HCC372 and HCC329 cells were seeded on a 24-well transwell migration insert (Nalge Nunc International Corp., Rochester, N.Y., USA) in a complete medium for 24 hours. After treatment with FIP-gmi (3 μg/ml), FIP-fve (10 μg/ml) and FIP-vvo (2.5 μg/ml) for 48 hours, cells that had migrated to the underside of the insert membrane were stained with 0.3% crystal violet. The cells on the topside of the insert membrane were rubbed with a cotton swab. The migrated cells on the underside were imaged using phase contrast microscopy with 200× magnification.

[8] = test system: HCC372; assay: transwell migration assay, HCC372; assay type: cell-based, human; conditions: FIP-fve 10 μg/ml, 48 hours
Procedure: as §2

[9] = test system: c-Met, p-c-Met and p-JNK in HCC372; assay: western blotting of c-Met dependent signaling (Example 10), HCC372; assay type: cell-based, human; conditions: HCC372 (HGFR-positive)
Procedure: To investigate the molecular mechanism of FIP-gts in suppression of tumor progression of HCCs, the effects of FIP-gts on the activity and/or quantity of the critical members present in c-Met dependent signaling pathway, including c-Met, phosphorylated c-Met (p-c-Met) and downstream effectors p-JNK and p-ERK, were examined in HCCs. HCC329 and HCC372 cells were treated with FIP-gts (2 μg/ml) for 4 or 24 hours. Total proteins were harvested from the cells and subjected to immuno-blotting analysis using GAPDH as a loading control. Antibodies for p-c-Met, p-JNK, p-ERK and p-paxillin (S178), GAPDH and ERK were purchased from Santa Cruz Biotechnology (California, USA). The band intensities on the blots were quantified with Image J. Software. Relative band intensity of each molecule was calculated, taking the data of untreated HCC372 or HCC329 as 1.0. The results were shown in FIGS. 5A and 5B, in which (**) (##) and (*) (#) represent statistical significance (p<0.005 and p<0.05, respectively, n=3) between the indicated inhibitor-treated sample and untreated HCC329 or HCC372 control group.
The experiments described in Example 7 were repeated, except that FIP-gts was replaced with FIP-gmi, FIP-fve and FIP-vvo for treating HCC329 and HCC372. […] In addition, since c-Met was not substantially expressed in HCC329, the inhibitory effects of FIP-gmi, FIP-fve and FIP-vvo on HCC329 must be exerted through blockage on a c-Met independent signaling, such as EGFR-dependent signaling pathway.

Cc1cc(C)c(/C=C2\C(=O)Nc3ccccc32)[nH]1 [SU5416, reference compound]
suppression of cell migration by EGFR inhibitors ([1]; wound healing assays, data not shown): 80%
reduction of the level of p-JNK by EGFR inhibitors [2]: 30%

Cn1cc(-c2ccc3nnc(C(F)(F)c4ccc5ncccc5c4)n3n2)cn1 [JNJ-38877605, reference compound]
suppression of cell migration [3]: 50%
suppression of cell migration ([1]; JNJ, 48 hours): 15%
secondary tumors on liver lobes (intra-hepatic metastasis) [4]: secondary tumors were observed on left and right liver lobes
tumor progression of HCC329 [4]: not prominent

B1: FIP-fve: fungal immunomodulatory protein from Flammulina veltipes, SEQ ID NO: 2 (protein)
chain: SATSLTFQLAYLVKKIDFDYTPNWGRGTPSSYIDNLTFPKVLTDKKYSYRVVVNGSDLGVESNFAVTPSGGQTINFLQYNKGYGVADTKTIQVFVVIPDTGNSEEYIIAEWKKT
modifications: Flammulina Velutipes
suppression of growth (MTT) ([5]; 2.5 μg/ml): 13%
suppression of growth (MTT) ([5]; 5 μg/ml): 13%
suppression of growth (MTT) ([6]; 2.5 μg/ml): 18%
suppression of growth (MTT) ([6]; 5 μg/ml): 22%
suppression of cell migration (transwell) [7]: marginally suppressed
suppression of cell migration (transwell) [8]: marginally suppressed
effect on c-Met [9]: significantly suppressed
effect on p-JNK [9]: significantly suppressed
effect on p-c-Met [9]: significantly suppressed

B2: FIP-gmi: fungal immunomodulatory protein from Ganoderma microsporum, SEQ ID NO: 6 (protein, listed as Ganoderma microsporum)
chain: MSDTALIFTLAWNVKQLAFDYTPNWGRGRPSSFIDTVTFPTVLTDKAYTYRVVVSGKDLGVRPSYAVESDGSQKINFLEYNSGYGIADTNTIQVYVIDPDTGNNFIVAQWN
suppression of growth (MTT) ([5]; 2.5 μg/ml): 23%
suppression of growth (MTT) ([5]; 5 μg/ml): 96%
suppression of growth (MTT) ([6]; 2.5 μg/ml): 23%
suppression of growth (MTT) ([6]; 5 μg/ml): 94%
effect on c-Met [9]: significantly suppressed
effect on p-JNK [9]: significantly suppressed
effect on p-c-Met [9]: significantly suppressed

B3: FIP-vvo: fungal immunomodulatory protein from Volvariella volvacea, SEQ ID NO: 3 (protein, listed as Volvariella volvacea)
chain: STDLTQLLFFIAYNLQKVNFDYTPQWQRGNPSSYIDAVVFPRVLTNKAYQYRVVTGDKDLGIKPSYSVQADGSQKVNLLEYNGGYGVADTTTIKIYVVDPSNGNQYLIAQWK
suppression of growth (MTT) ([5]; 2.5 μg/ml): 48%
suppression of growth (MTT) ([5]; 5 μg/ml): 96%
suppression of growth (MTT) ([6]; 2.5 μg/ml): 54%
suppression of growth (MTT) ([6]; 5 μg/ml): 95%
effect on c-Met [9]: significantly suppressed
effect on p-JNK [9]: significantly suppressed
effect on p-c-Met [9]: significantly suppressed
